# Source: paper PMC12007569, “Molecular basis of pyruvate transport and inhibition of the human mitochondrial pyruvate carrier” (Science Advances, 2025)
# B1: nanobody CA19425 (VHH)
# VHH: QVQLVESGGGLVQAGGSLRLSCAASGRTFSAYGISTYTMGWFRQAPGKEREFVAAIGRDSGFTYYEDSVKGRFTINADNAENTVYLQMNSLKPEDTAVYYCAASSYYGRPNVDLMAYWGKGTQVTVPP
# notes: as the nanobody part of m4, held in the PMb chain of the deposited entries (modelled residues 4 to 131); One of six nanobodies (four families); also called MPC2-specific nanobody; source: from a phage display library (pMESy4) of a llama immunised with hMPC1L/MPC2 proteoliposomes
# Biological target: T1, human MPC1L/MPC2 heterodimer (Homo sapiens, UniProt P0DKB6;O95563)
# T1 construct: MPC1L, human, wild-type cDNA, UniProt P0DKB6; MPC2, human, wild-type cDNA, UniProt O95563; Heterodimer formed beforehand (co-expressed and co-purified) and then mixed with the nanobody or the Pro-macrobody; also called hMPC1L/MPC2; hMPC1L/2 heterodimer; source: S. cerevisiae W303-1B, purified from mitochondria (LMNG, Nickel Sepharose, on-column TEV digestion); not shown: His tag, C-terminal, …
# T1 sequence (P0DKB6 whole entry, chain 1 of 2): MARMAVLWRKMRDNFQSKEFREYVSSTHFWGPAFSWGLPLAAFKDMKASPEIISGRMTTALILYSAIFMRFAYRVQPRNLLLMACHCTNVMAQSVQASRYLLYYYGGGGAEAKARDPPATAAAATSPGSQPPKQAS
# T1 sequence (O95563 whole entry, chain 2 of 2): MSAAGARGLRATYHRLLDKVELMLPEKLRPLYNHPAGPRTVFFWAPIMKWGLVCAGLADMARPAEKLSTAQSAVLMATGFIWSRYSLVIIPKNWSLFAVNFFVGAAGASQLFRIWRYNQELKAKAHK
# Assay: pull-down; 75 μg hMPC1L/MPC2 incubated at a stoichiometric ratio with each nanobody for 1 hour at 4°C, then Ni-NTA Superflow resin 1 hour at 4°C; washed with buffer B, eluted with 250 mM imidazole; fractions on SDS-PAGE
# Details: both partners purified
binder,measurement,value
B1,binding result,binds
